US20250186597A1, “TARGETED IMMUNE ACTIVATION WITH IL-18 IMMUNOCYTOKINES” (BRIGHT PEAK THERAPEUTICS AG, priority 2023, published 2025)

Key:
[1] = molecular target: T1, human IL-18 Binding Protein (IL-18BP) (Homo sapiens, UniProt O95998); assay: IL-18 Binding Protein alphaLISA assay (Example 12); conditions: human IL-18BP
T1 sequence (O95998 31-194): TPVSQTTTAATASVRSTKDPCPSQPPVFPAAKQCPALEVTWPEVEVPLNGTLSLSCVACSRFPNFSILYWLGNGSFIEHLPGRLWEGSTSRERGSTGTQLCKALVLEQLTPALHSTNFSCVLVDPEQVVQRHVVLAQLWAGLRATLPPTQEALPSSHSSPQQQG
Procedure: Wild type or modified IL-18 polypeptides samples were diluted at 5.6 μM in a solution of 1× alphaLISA Immunoassay Buffer provided in the alphaLISA IFNγ Detection kit and were diluted applying 3-fold serial dilutions down to […] in 384 deep well plates. A solution of 10 ng/ml of human IL-18BP-His was prepared with 1×alphaLISA Immunoassay Buffer. IL-18/IL-18BP complex formation was performed incubating 30 μl of IL-18BP solution to IL-18 sample titrations for 1 h at 20° C. IL-18BP standard was prediluted from stock solution supplied in alphaLISA IFNγ Detection kit at 100 ng/ml with 1×alphaLISA Buffer and titration prepared from applying 2-fold serial dilutions. The following solutions were prepared: a 50 μg/ml solution of anti-IL-18BP alphaLISA Acceptor beads, a 5 nM solution of biotinylated anti-IL18BP antibody and a 80 μg/ml light-protected solution of Streptavidin Donor beads in 1×alphaLISA Immunoassay Buffer. […]
5 μl of Biotinylated anti-IL-18BP antibody were added, followed by a short centrifugation step at 150 g, and incubated for 60 minutes at 20° C. under shaking at 750 rpm. […] AlphaLisa signal was then measured on an Enspire plate reader (Perkin Elmer) using 680 and 615 nm as excitation and emission wavelengths respectively. […]

[2] = system: parental PD-1negative NK-92 cells; assay: IFN gamma secretion assay in parental PD-1 negative NK-92 cells (Example 17); type: cell-based, human; conditions: IFNγ secretion
Procedure: To show selectivity of the anti-PD1-IL18 immunocytokine (IC) for PD-1 positive cells, the NK-92 cell line was used to generate a PD-1 expressing cell line and furthermore, to measure IFN[…] release upon incubation with IL-18 variants and ICs.
On the day of experiment, parental PD-1negative and PD-1positive transduced cells were harvested and washed with PBS 1× and resuspended in medium (w/o IL-2) containing 1 ng/ml of recombinant human Interleukin-12 (SinoBiologicals, Cat #CT011-H08H). After counting, cells were seeded at 100 000 cells/well in a 384 well culture plate and incubated at 37° C./5% CO2. When indicated, cells were preincubated with anti-PD-1 antibody LZM-009 at 17 uM during 30 min at 37° C. […] The lowest concentration assessed was 0.8 fM.
After 16-20 h incubation at 37° C./5% CO2, 5 μl of supernatant were carefully transferred to a 384 microwell OptiPlate (Perkin Elmer; Cat #6007270) and Interferon-gamma (IFNγ) levels were measured using the Human IFNγ AlphaLISA Assay Kit (Perkin Elmer, Cat #AL217C). […] AlphaLISA signal was then measured on an Enspire plate reader (Perkin Elmer) using 680 and 615 nm as excitation and emission wavelengths respectively. Half maximal effective concentration (EC50) was calculated based on a variable slope, four parameter analysis using GraphPad PRISM software.

Kd [1]: 24.6 nM
B1: SEQ ID NO: 30: IL-18 polypeptide: E6K, V11I, C38A, K53A, T63A, C76A, C127A (protein)
chain: YFGKLKSKLSIIRNLNDQVLFIDQGNRPLFEDMTDSDARDNAPRTIFIISMYADSQPRGMAVAISVKCEKISTLSAENKIISFKEMNPPDNIKDTKSDIIFFQRSVPGHDNKMQFESSSYEGYFLAAEKERDLFKLILKKEDELGDRSIMFTVQNED
EC50 [2]: 2.4 pM
